The results in this text go back to doi:10.1101/2021.01.14.426755 (bioRxiv, 2021).

The assay has as its target T1, Tfb2 (yeast (endogenous, purified from yeast), UniProt Q02939 1-513).
T1 sequence: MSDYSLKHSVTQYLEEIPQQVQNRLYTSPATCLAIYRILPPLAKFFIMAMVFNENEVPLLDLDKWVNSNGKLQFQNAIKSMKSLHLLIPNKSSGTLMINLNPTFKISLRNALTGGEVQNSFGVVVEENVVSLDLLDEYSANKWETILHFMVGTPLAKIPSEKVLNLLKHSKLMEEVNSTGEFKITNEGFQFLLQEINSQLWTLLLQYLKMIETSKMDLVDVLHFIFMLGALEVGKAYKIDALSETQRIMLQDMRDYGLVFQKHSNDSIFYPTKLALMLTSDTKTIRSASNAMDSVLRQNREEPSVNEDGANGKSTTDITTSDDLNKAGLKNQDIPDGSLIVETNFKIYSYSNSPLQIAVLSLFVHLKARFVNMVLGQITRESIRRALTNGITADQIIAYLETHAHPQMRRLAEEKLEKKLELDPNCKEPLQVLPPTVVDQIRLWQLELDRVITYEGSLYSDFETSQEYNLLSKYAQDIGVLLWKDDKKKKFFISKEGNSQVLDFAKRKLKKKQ
The assay can be described thus: cryo-EM structure.

B1: Tfb5 (natural protein)
chain: MARARKGALVQCDPSIKALILQIDAKMSDIVLEELDDTHLLVNPSKVEFVKHELNRLLSKNIYNPMDEEENQ
On to B1, for which the binding result is given as “binds”.
